Assay results taken from US20110165161A1, “ANTI-EPCAM ANTIBODIES THAT INDUCE APOPTOSIS OF CANCER CELLS AND METHODS USING SAME” (priority 2009, published 2011).
Numbering of substitutions follows the chain as printed.

T1: EGFI-Cr1 Q47A (human, UniProt P16422 24-63)
T1 construct: not shown: the constant region of human immunoglobulin gamma 1 heavy chain (Cr1) fused at the C-terminus
T1 chain: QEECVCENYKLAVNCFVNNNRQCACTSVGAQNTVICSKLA

T2: EGFI-Cr1 E25K (human, UniProt P16422 24-63)
T2 construct: not shown: The fused constant region of human immunoglobulin gamma 1 heavy chain (Cr1)
T2 chain: T1 chain with E2K, A24Q

T3: EGFI-Cr1 V40E (human)
T3 construct: not shown: The fused constant region of human immunoglobulin gamma 1 heavy chain (Cr1)
T3 chain: T1 chain with V17E, A24Q

T4: EGFI-Cr1 Q45A (human, UniProt P16422 24-63)
T4 construct: not shown: the constant region of human immunoglobulin gamma 1 heavy chain (Cr1) fused at the C-terminus
T4 chain: T1 chain with Q22A, A24Q

T5: EGFI-Cr1 T49A (human, UniProt P16422 24-63)
T5 construct: not shown: the constant region of human immunoglobulin gamma 1 heavy chain (Cr1) fused at the C-terminus
T5 chain: T1 chain with A24Q, T26A

T6: EGFI-Cr1 N41A (human, UniProt P16422 24-63)
T6 construct: not shown: The fused constant region of human immunoglobulin gamma 1 heavy chain (Cr1)
T6 chain: T1 chain with N18A, A24Q

T7: EGFI-Cr1 A35T (human, UniProt P16422 24-63)
T7 construct: not shown: The fused constant region of human immunoglobulin gamma 1 heavy chain (Cr1)
T7 chain: T1 chain with A12T, A24Q

T8: EGFI-Cr1 N37R (human)
T8 construct: not shown: The fused constant region of human immunoglobulin gamma 1 heavy chain (Cr1)
T8 chain: T1 chain with N14R, A24Q

T9: EGFI-Cr1 F39A (human, UniProt P16422 24-63)
T9 construct: not shown: The fused constant region of human immunoglobulin gamma 1 heavy chain (Cr1)
T9 chain: T1 chain with F16A, A24Q

T10: EGFI-Cr1 R44G (human, UniProt P16422 24-63)
T10 construct: not shown: the constant region of human immunoglobulin gamma 1 heavy chain (Cr1) fused at the C-terminus
T10 chain: T1 chain with R21G, A24Q

T11: EGFI-Cr1 N43A (human, UniProt P16422 24-63)
T11 construct: not shown: the constant region of human immunoglobulin gamma 1 heavy chain (Cr1) fused at the C-terminus
T11 chain: T1 chain with N20A, A24Q

T12: EGFI-Cr1 E26D (human, UniProt P16422 24-63)
T12 construct: not shown: The fused constant region of human immunoglobulin gamma 1 heavy chain (Cr1)
T12 chain: T1 chain with E3D, A24Q

T13: EGFI-Cr1 N42E (human, UniProt P16422 24-63)
T13 construct: not shown: the constant region of human immunoglobulin gamma 1 heavy chain (Cr1) fused at the C-terminus
T13 chain: T1 chain with N19E, A24Q

T14: EGFI-Cr1 Q24A (human, UniProt P16422 25-63)
T14 construct: not shown: The fused constant region of human immunoglobulin gamma 1 heavy chain (Cr1)
T14 chain: T1 chain with Q1A, A24Q

B1: murine monoclonal antibody 1G10 (antibody, mouse IgG1, V domains shown)
VH: QIQLVQSGPELKKPGETVKISCKASGYTFTNYGMNWVKQAPGKGFKWMGWINTYTGEPTYADDFKGRFAFSLETSASTAYLQINNLQNEDMATYFCARWGYDFDYWGQGTTLTVSS
VL: QIVLTQSPAIMSSSPGEKVTMTCSASSSISYMNWYQQKPGTSPKRWIYDTSKLASGVPARFSGSGSGTSYSLTISSMEAEDAATYYCHQRSSYPYTFGGGTKLEIKR
notes: Mouse IgG1, kappa, from hybridoma; also called m290-1G10
B2: murine monoclonal antibody 1F10 (antibody, mouse IgG1, V domains shown)
VH: EVKLLESGGGLVQPGGSLKLSCAASGFDFSRYWMSWVRQAPGKGLEWIGEINPDSSTMNYTPSLKDKFIISRDNAKNTLYLQMSKVRSEDTALYYCARGAYAMDYWGQGTSVTVSS
VL: QAVVTQESALTTSPGETVTLTCRSSTGAVTTSNNANWVQEKPDHLFTGLIGATNNRAPGVPARFSGSLIGDKAALTITGAQTEDEAIYFCALWYINHWVFGGGTKLTVLG
notes: Mouse IgG1, lambda 1, from hybridoma; also called m338-1F10.3

Assays:
[1] = tested on: COLO 205 colon cancer cells; assay: Cytotoxicity of anti-EpCAM antibodies in combination with oxaliplatin in COLO 205; type: cell-based, human; conditions: No mAb added, 24 hr
Description: Oxaliplatin, combined with infusional administration of 2 other chemotherapy drugs, 5-fluorouracil/leucovorin (5-FU/LV), is now considered as one of the as first-line treatments for people with advanced carcinoma of the colon or rectum (André et al. (2004) N Engl J Med 350(23):2343-2351). To test the cytotoxicity of anti-EpCAM antibodies in the presence of oxaliplatin, 1×10^5 COLO 205 cells were seeded to each well of a 96-well plate, and then 0.03, 0.3 and 3 μg/ml of anti-EpCAM or control (9E10) mAbs in combination with oxaliplatin at concentration of 0, 0.01, 0.1, and 1 μg/ml diluted in the medium were added into the cells. After a 24-hr incubation at 37° C., the cells were stained with 0.3 μl of FITC-conjugated Annexin V (Strong Biotech Corp. Cat. No. AVK250) in 50 μl Annexin V binding buffer (Strong Biotech Corp. Cat. No. AVK250) at RT for 20 min. After wash, the cells were then stained with 0.3 μl of propidium iodide in 200 μl Annexin V binding buffer. Annexin V and Propidium Iodide were used as a joint indicator for measuring cell death. The data were acquired with BD FACSCalibur based on an acquisition of 3,000-5,000 cells and analyzed with the Cell Quest software. The combined percentages of the Annexin V+/PI+, Annexin V+/PI− and Annexin V−/PI+populations were considered as dead cells.

[2] = molecular target: T1, EGFI-Cr1 Q47A; assay: direct ELISA, coated EGFI-Cr1 fusion, 0.1 µg/ml antibody
Description: (§1) A direct ELISA was used for testing the reactivity of anti-EpCAM antibodies toward variant EpCAM mutants. Briefly, purified EpCAM EGF-1 fusion proteins (WT, Q24A, E25K, E26D, A35T, N37R, F39A, V40E, N41A, N42E, N43A, R44G, Q45A, Q47A or T49A) and irrelevant control (CEA-Cr1) were pre-diluted to 0.5 μg/ml in coating buffer (8.4 g NaHCO₃, 3.4 g Na₂CO₃ in 1 L H₂O, pH 9.5) and aliquoted (100 μl/well) into 96-well plates. […] Plates were then washed 3 times with PBST followed by the addition of the enzyme substrate TMB (BD Biosciences, Cat. No. 555214). […] The optical densities at 450 nm wavelength were measured on an ELISA plate reader.

[3] = molecular target: T2, EGFI-Cr1 E25K; assay: as above
Description: as §1

[4] = molecular target: T3, EGFI-Cr1 V40E; assay: as above
Description: as §1

[5] = molecular target: T4, EGFI-Cr1 Q45A; assay: as above
Description: as §1

[6] = molecular target: T5, EGFI-Cr1 T49A; assay: as above
Description: as §1

[7] = molecular target: T6, EGFI-Cr1 N41A; assay: as above
Description: as §1

[8] = molecular target: T7, EGFI-Cr1 A35T; assay: as above
Description: as §1

[9] = molecular target: T8, EGFI-Cr1 N37R; assay: as above
Description: as §1

[10] = molecular target: T9, EGFI-Cr1 F39A; assay: as above
Description: as §1

[11] = molecular target: T10, EGFI-Cr1 R44G; assay: as above
Description: as §1

[12] = molecular target: T11, EGFI-Cr1 N43A; assay: as above
Description: as §1

[13] = molecular target: T12, EGFI-Cr1 E26D; assay: as above
Description: as §1

[14] = molecular target: T15, EGFI-Cr1 wild type (first EGF-like repeat of human EpCAM fused to the constant region of human immunoglobulin … (human, UniProt P01857-1 99-330 = IgG part)); assay: as above
T15 construct: cDNA covered aa 1-63; Expressed in COS-7 cells; also called WT; EpCAM EGF-1 fusion protein WT
Description: as §1

[15] = molecular target: T13, EGFI-Cr1 N42E; assay: as above
Description: as §1

[16] = molecular target: T14, EGFI-Cr1 Q24A; assay: as above
Description: as §1

| Molecule | % of Annexin V + PI staining (untreated background subtracted) ([1]; oxaliplatin 0.01 μg/ml) | % of Annexin V + PI staining (untreated background subtracted) ([1]; oxaliplatin 0.1 μg/ml) | % of Annexin V + PI staining (untreated background subtracted) ([1]; oxaliplatin 1 μg/ml) | relative binding activity (% of WT) [2] | relative binding activity (% of WT) [3] | relative binding activity (% of WT) [4] | relative binding activity (% of WT) [5] | relative binding activity (% of WT) [6] | relative binding activity (% of WT) [7] | relative binding activity (% of WT) [8] | relative binding activity (% of WT) [9] | relative binding activity (% of WT) [10] | relative binding activity (% of WT) [11] | relative binding activity (% of WT) [12] | relative binding activity (% of WT) [13] | relative binding activity (% of WT) [14] | relative binding activity (% of WT) [15] | relative binding activity (% of WT) [16] |
| --- | --- | --- | --- | --- | --- | --- | --- | --- | --- | --- | --- | --- | --- | --- | --- | --- | --- | --- |
| O=C1[O][Pt]2([NH][C@@H]3CCCC[C@H]3[NH]2)[O]C1=O [Oxaliplatin, reference compound] | 1% | 1% | 2% |  |  |  |  |  |  |  |  |  |  |  |  |  |  |  |
| B1 |  |  |  | 49% | 3% | 71% | 80% | 17% | 23% | 89% | 1% | 78% | 95% | 96% | 1% | 100% | 93% | 44% |
| B2 |  |  |  | 92% | 10% | 1% | 84% | 94% | 63% | 93% | 97% | 81% | 1% | 100% | 98% | 100% | 95% | 93% |
